# Patent US20150147342A1 (published 2015)
# Where a chain is given by its changes, count along the chain named.
# B1: H1H743N (antibody, V domains shown)
# VH: EVQLLESGGGLVQPGGSLRLSCAASGFTFRKYAMSWVRQAPGKGLEWVSVISVSGGNTYYADSVKGRFTISRDNSKNTLYLQLNSLRAEDTAVYYCAKDLTDIVLMVYVDYWGQGTLVTVSS
# VL: DIQMTQSPSSVSASVGDRVTITCRASQDIDRWLAWYQQKPGKAPKLLIYAASSLQSGVPSRFSGSGSGTDFTLTISTLQPEDFATYYCQQANSLPFTFGGGTKVEIK
# B2: H1H706P (antibody, V domains shown)
# VH: QVQLVESGGGVVQPGRSLRLSCAASGFTFSSYGMHWVRQAPDKGLEWVAVKWDDGSNKYYADSVKGRFTISRDNSKNTLYLQMNSLRAEDTAVYYCAREGPYDFYSGYGAFDIWGQGTMVTVSS
# VL: DIQMTQSPSSLSASVGDRVTITCRASQGISNYLAWFQQKPGKAPKSLIYAASSLQSGVPSKFSGSGSGTDFTLTISSLQPEDFATYYCQQYNSYPRTFGQGTKVEIK
# B3: H1H693P (antibody, V domains shown)
# VH: EVQLVESGGGLVQPGESLRLSCAASGFTFSSYAMSWVRQGPGKGLEWVSSISGSGGTTYYADSVEGRFTISRDNSKNTLYLHMNSLRAEDTAVYYCAKDFLDYSTYLAFDLWGQGTMVTVSS
# VL: B1 VL with D28G, D30S, R31S, T77S, L94F, F96R, G100Q
# B4: H1H707P (antibody, V domains shown)
# VH: B2 VH
# VL: not shown
# B5: H1H696P (antibody, V domains shown)
# VH: QVQLVESGGGLVKPGGSLRLSCAASGFTFSDYYMSWIRQAPGKGLEWVSYISYTGRTIYYADSVKGRFTISRDNAKNSLYLQMNSLRAEDTAVYYCARDTDYGDFFDYWGQGTLVTVSS
# VL: B2 VL with R96L, Q100G
# B6: H1H728N (antibody, V domains shown)
# VH: EVQLVESGGDLVQPGGSLRLSCTASGFTFSKYWMTWVRQAPGRGLEWVANIKEDGNEKYFLDSVKGRFTISRDNAKDLLFLQMNSLRGEDTAVYYCVRDRGIEVAGPFDYWGQGTLVTVSS
# VL: DIQMTQSPSTLSASVGDRVTVTCRASQTIINWLAWYQQKPGKAPKLLISKASSLESGVPSRFSGSGSGTEFTLTISSLQPDDFATYYCQQYNRYWTFGQGTMVEIK
# B7: H1H730N (antibody, V domains shown)
# VH: EVQLVESGGGLVQPGGSLRLSCAASGFAFRSYWMTWVRQAPGKGLEWVANIQQDGNDKYYVDSVKGRFTISRDNAKNSLYLQMNSLRAEDTAVYYCARDTGIAEAGPFDYWGQGTLVTVSS
# VL: B6 VL with T20S, V21I, N31S, K45R, S49Y, S76N, M102K
# B8: H1H690P (antibody, V domains shown)
# VH: B3 VH with S52T, G56D, E65K
# VL: EIVLTQSPATLSLSPGERATLSCRASQSVSSYLTWYQQKPGQAPRLLSYDASNRATGIPARFSGSGSGTDFTLTISSLEPEDFAVYYCQQRSNWPLTFGGGTKVEIK
# B9: H1H724N (antibody, V domains shown)
# VH: QVQLVESGGGVVQPGRSLRLSCAASGFTLSNYGMHWVRQAPGKGLEWVAVIWHDGSNTYYADSVKGRFTISRDNSKNTLYLQMNSLRAEDTAVYYCTREGLDFWSGYYPNWFDPWGQGTLVTVSS
# VL: DIQMTQSPSSLSASVGDRVTITCRASQGIRNDLGWYQQKPGKAPKRLIYAASNLQGGVPSRFSGSGSGTEFTLTISSLQPEDFAAYYCLQHNIYPLTFGGGTKVEIK
# B10: H1H732N (antibody, V domains shown)
# VH: EVQLVESGGGLVRPGGSLRLSCAASGFTFTNAWMSWVRQAPGKGLEWIGQIKSKTDGGTIDYAAPVKGRFTVSRDDSENTLFLQMNSLKTEDTAVYYCAGNWNYVDFDYWGQGTLVTVSS
# VL: B9 VL with G28D, N53S, A85T, I93S, L96F, G100P, E105D
# B11: H1H750N (antibody, V domains shown)
# VH: QVKLVESGGGVVQPGRSLRVSCAASGFTFSSYGMHWVRQAPGKGLEWLAIIWYDGDNKYYSDSVKGRFTISRDNSKNTLYLQMNSLRAEDTAEYYCVRDASIASRFLDYWGQGTLVTVSS
# VL: DIQMTQSPSSLSASIGDRVTITCRATQDINNYLAWFQQKPGKAPKSLIYATSNLQSGVPSKFSGSGSGTDYTLTISSLQPEDFSTYYCQQYHSYPLTFGGGTKVEIK
# B12: H1H749N (antibody, V domains shown)
# VH: QVQLVESGGGVVQPGRSLRLSCAASGFTFSSYGMHWVRQAPGKGLEWVAVIWYDEFNKYYADSVKGRFTISRDNSKNTLYLQMNSLRAEDTAVYYCARERESGYSYGFDYWGQGTLVTVSS
# VL: EIVMTQSPATLSVSPGERATLSCRAGQSVSSNLAWYQQKPGQAPRLLIYGASTRATGIPARFSGSGSGTEFTLTISSLQSEDFAVYYCQQYNNWWTFGQGTKVEIK
# B13: H1H695P (antibody, V domains shown)
# VH: QVQLVESGGGVVQPGRSLRLSCAASGFTFSSYGMHWVRQAPGKGLEWVAVMWYDETNKYYADSVKGRFTISRDNSKNTLYLQMNSLRAEDTAVYYCARYSGYEDYYHGMDVWGQGTTVTVS
# VL: B12 VL with L11P, G26S, V29I, Q90H, W95I, K102R, V103L
# B14: H1H704P (antibody, V domains shown)
# VH: QVQLVESGGDVVQPGRSLRLSCAASGFTFSSYGMHWVRQAPGKGLEWVAIIWYDGSNKYYADSVKGRFTISRDNSKNTLYLQMNSLRVEDTAVYSCARDFSISSRHFDYWGQGTLVTVSS
# VL: DIQMTQSPSSLSASVGDRVTITCRASQAINNYLAWFQQKPGKAPKSLIYATSNLQSGVPSQFSGSGSGTDYTLTISSLQPEDFATYYCQQYYIYPITFGQGTRLEIK
# B15: H1H691P (antibody, V domains shown)
# VH: EVQLVESGGGLVQPGRSLRLSCAASGFTFDDYAMHWVRQAPGKGLEWVSGISWNSGDIGYADSVKGRFTISRDNAKNSLYLQMNSLRAQDTALYYCAKAYGDYYYFYGMDVWGQGTTVTVS
# VL: EIVLTQSPGTLSLSPGERATLSCRASQSVSSSYLAWYQQKPGQAPRLLIFSASSRATGIPDRFSGSGSGTDFTLTISRLEPEDFAVYYCQQYDNSLTFGGGTKVEIK
# B16: H1H742N (antibody, V domains shown)
# VH: DVQLLESGGDLVQPGGSLRLSCEASGFTFRNYVMIWVRQAPGKGLEWVSGISNSGGTTHYTDSVKGRFTISRDNSKNTLYLQINSLRAEDTAVYYCAKGYLDTSLIEGNWFDPWGQGTLVTVSS
# VL: NIVMTQSPLSLPVTPGEPASISCRSSQSLLHSNGFNYLNWFLQKPGQSPQLLIYLGSNRASGVPDKFSGSGSGTDFTLNINRVEAEDVGIYFCMQTLQTPLTFGGGTKVEIK
# Target: T1, Dimeric fibrinogen-like domain of human Ang-2 conjugated to human IgG1 (human)
# T1 construct: also called Dimeric Human Ang-2FD; Human Ang-2FD-hFc
# Test: SPR, hIgG1 antibody captured, room temp
# Procedure: (§1) Antibody was captured on a goat anti-mouse IgG polyclonal antibody surface, a goat anti-human κ polyclonal antibody (Southern Biotech, Birmingham, Ala.) surface or a goat anti-human IgG polyclonal antibody (Jackson Immuno Research Lab, West Grove, Pa.) surface created through direct amine coupling to a BIACORE™ CM5 sensor chip to form a captured antibody surface. […] Antigen-antibody binding and dissociation were monitored in real time at room temperature. Kinetic analysis was performed to calculate KD and half-life of antigen/antibody complex dissociation.
# (§2) The above experiment was repeated using selected purified anti-Ang-2 antibodies cloned onto human IgG1.
# T1 sequence (chain, as listed by the source limits assumed): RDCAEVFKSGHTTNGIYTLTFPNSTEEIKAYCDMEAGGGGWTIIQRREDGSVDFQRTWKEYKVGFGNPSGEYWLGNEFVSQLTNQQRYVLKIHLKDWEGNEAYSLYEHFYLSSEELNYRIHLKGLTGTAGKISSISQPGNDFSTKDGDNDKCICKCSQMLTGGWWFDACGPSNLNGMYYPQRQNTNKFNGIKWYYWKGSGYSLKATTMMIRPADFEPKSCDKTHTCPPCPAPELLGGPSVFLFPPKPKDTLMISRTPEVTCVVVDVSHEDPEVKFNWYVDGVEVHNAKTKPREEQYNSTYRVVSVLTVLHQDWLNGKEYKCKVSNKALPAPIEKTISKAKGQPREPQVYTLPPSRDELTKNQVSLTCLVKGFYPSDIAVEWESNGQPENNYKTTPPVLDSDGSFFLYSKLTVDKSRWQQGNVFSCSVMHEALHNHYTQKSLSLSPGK
Kd [nM],T1/2 [h],Binder
0.0882,4.23,B1
0.201,0.84,B2
0.5,0.618,B3
0.262,0.443,B4
0.289,0.647,B5
0.162,1.35,B6
0.234,1.03,B7
0.079,2.1,B8
0.115,1.78,B9
0.386,0.95,B10
0.164,2.12,B11
0.118,1.82,B12
0.245,2.45,B13
0.331,1.43,B14
0.22,0.642,B15
0.186,1.08,B16

# Target: T2, Dimeric fibrinogen-like domain of mouse (Mus musculus) Ang-2 conjugated to human IgG1 (mouse (Mus musculus))
# T2 construct: also called Dimeric Mouse Ang-2FD; Mouse Ang-2FD-hFc
# Test: SPR, hIgG1 antibody captured, room temp
# Procedure: as §1, §2
# T2 sequence (chain, as listed by the source limits assumed): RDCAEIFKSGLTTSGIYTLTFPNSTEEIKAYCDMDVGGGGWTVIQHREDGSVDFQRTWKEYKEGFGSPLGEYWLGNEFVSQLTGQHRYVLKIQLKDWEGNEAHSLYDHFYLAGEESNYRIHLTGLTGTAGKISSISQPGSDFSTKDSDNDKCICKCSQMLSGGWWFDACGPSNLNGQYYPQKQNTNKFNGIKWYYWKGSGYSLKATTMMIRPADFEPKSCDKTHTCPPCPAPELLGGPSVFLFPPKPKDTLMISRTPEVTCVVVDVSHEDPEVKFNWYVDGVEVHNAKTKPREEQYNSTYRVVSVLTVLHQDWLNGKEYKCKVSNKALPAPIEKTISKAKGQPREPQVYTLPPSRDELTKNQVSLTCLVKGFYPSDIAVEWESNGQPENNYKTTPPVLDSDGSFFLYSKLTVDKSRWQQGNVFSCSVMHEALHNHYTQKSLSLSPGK
Kd [nM],T1/2 [h],Binder
0.124,3.88,B1
0.357,0.783,B2
0.446,1.06,B3
0.328,0.573,B4
0.402,0.627,B5
5.76,0.333,B6
0.0971,1.5,B7
0.0913,1.75,B8
0.185,1.4,B9
0.529,0.85,B10
0.218,2.02,B11
0.177,1.6,B12
0.347,2.07,B13
0.484,1.03,B14
0.22,0.73,B15
0.276,0.967,B16

# Target: T3, Dimeric fibrinogen-like domain of monkey (Macca fascicularis) Ang-2 conjugated to human IgG1 (monkey (Macca fascicularis))
# T3 construct: also called Dimeric Monkey Ang-2FD; Monkey Ang-2FD-hFc
# Test: SPR, hIgG1 antibody captured, room temp
# Procedure: as §1, §2
# T3 sequence (chain, as listed by the source limits assumed): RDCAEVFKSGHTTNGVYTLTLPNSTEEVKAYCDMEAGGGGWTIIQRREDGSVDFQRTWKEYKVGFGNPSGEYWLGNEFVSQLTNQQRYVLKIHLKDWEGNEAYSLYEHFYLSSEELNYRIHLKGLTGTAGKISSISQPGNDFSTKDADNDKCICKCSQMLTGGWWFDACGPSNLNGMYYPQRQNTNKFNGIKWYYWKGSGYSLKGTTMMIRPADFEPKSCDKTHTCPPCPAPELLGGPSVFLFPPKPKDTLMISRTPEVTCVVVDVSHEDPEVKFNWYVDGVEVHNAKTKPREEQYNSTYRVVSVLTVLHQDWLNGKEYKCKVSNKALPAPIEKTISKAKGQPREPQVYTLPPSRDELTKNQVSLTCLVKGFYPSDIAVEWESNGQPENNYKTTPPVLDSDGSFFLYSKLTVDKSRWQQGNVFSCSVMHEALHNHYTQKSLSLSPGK
Kd [nM],T1/2 [h],Binder
0.0965,13,B1
0.164,0.888,B2
1.17,0.293,B3
0.283,0.372,B4
0.354,0.61,B5
2,1.28,B6
3.4,1.45,B7
0.0556,3.25,B8
0.239,2.88,B9
0.439,1.97,B10
0.199,4.07,B11
0.407,2.38,B12
0.44,1.4,B13
0.818,0.558,B14
0.29,0.683,B15
0.683,1.55,B16
